Three molecules from article PMC6411835 (Nucleic Acids Research, 2018) can be followed below.

B2: Zip2^499–704 (domain or fragment)
chain: ENKCIAVNENKVIENQKVIQSLCKNSHLDLIEQSYFGECDFIINHSTCVYKIQASRFMQLRNNGSLHYDKAVNDLLTEFQRVIIIVEFSEIIQDVDPDLFWKIKLYLLNSRVDVFFIHETTDFFIDWMKYFIARWAFSYNDEKEKNIANADILLDLGFNILLVRKIFQTYSLEEFFMAIIKEESKAVKMLTVSQMTRLKKLLTLEW
B3: His6-Spo16 (natural protein)
chain: SEFFWDVQKIQEISNVEEHSVVKCVTVNTSRLISQLNEELQDEESGVNFIVTQLQLLINNVYEKIQKSPGVPAHRSLMINLNFTRLKFSIAYWDILLERSLDLINGPSKTGARYFITEVTPVDRSRYVENNQYFLAFKANQRLTRNSVDMDEFIDFEILIKQIIFDLFKKNGIPDQDFEAILSRFHNLESLVVAFNE

Test [1] addresses T1, surface-lysine methylated Zip2^499–704 (S. cerevisiae, UniProt P53061 499-704).
T1 sequence: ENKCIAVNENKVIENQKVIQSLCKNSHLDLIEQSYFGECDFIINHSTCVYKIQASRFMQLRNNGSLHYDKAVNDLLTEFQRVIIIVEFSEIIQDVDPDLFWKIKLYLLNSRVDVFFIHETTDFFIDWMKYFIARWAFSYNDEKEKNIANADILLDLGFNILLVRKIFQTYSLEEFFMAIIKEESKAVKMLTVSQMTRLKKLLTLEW
The experiment in a line: crystal structure.

The test “His6-Spo16” deals with B3. As to the kind of experiment: SEC-MALS.
The test “Zip2^499–704” addresses B2. The experiment in a line: co-purification after co-expression.

B1: surface-lysine methylated His6-Spo16 (natural protein)
chain: SEFFWDVQKIQEISNVEEHSVVKCVTVNTSRLISQLNEELQDEESGVNFIVTQLQLLINNVYEKIQKSPGVPAHRSLMINLNFTRLKFSIAYWDILLERSLDLINGPSKTGARYFITEVTPVDRSRYVENNQYFLAFKANQRLTRNSVDMDEFIDFEILIKQIIFDLFKKNGIPDQDFEAILSRFHNLESLVVAFNE
modifications: surface lysine residues dimethylated (dimethyllysine)
As for B1, the binding result in test [1] is listed as “binds”.

In general, stoichiometry N refers to the number of molecules, sites or subunits per partner or assembly. B2: the “stoichiometry N” value in the test with His6-Spo16 was determined as 1.

As for B3, the binding result with Zip2^499–704 is “binds”.
